From patent publication US20230250186A1 (published 2023)

T1: mouse CD38 extracellular protein (mouse, UniProt P56528 45-304)
T1 construct: extracellular domain; Purchased; also called CD38 protein molecules of mice
T1 sequence (looked up): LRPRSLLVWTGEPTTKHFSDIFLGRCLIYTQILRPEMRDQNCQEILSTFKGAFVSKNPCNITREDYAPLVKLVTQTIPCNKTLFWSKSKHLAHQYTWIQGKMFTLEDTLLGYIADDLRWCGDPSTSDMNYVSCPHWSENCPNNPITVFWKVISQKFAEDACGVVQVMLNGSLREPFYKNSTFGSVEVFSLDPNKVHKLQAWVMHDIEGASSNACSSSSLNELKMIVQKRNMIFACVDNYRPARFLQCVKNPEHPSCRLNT

T2: rat CD38 extracellular protein (rat, UniProt Q64244 45-303)
T2 construct: extracellular domain; Purchased; also called CD38 protein molecules of rats
T2 sequence (looked up): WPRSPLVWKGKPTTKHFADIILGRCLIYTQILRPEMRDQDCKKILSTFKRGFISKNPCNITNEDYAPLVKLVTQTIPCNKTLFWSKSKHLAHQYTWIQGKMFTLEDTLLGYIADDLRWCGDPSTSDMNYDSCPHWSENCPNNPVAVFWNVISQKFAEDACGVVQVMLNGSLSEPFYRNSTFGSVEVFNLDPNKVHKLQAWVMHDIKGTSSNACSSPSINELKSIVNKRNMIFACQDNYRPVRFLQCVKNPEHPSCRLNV


Assays:
[1] = molecular target: T3, CD38 protein on the surface of Raji, Daudi, Ramos and RPMI8226 cells (human, UniProt P28907 1-300); experiment: cell-based or functional assay
[2] = molecular target: T3, CD38 protein on the surface of Raji, …; experiment: flow cytometry on Raji cells
Method: (§1) The logarithmic growth phase cells were collected, adjusted to a cell density of 5×10⁶ cells/mL, and pre-cooled on ice. […] 100 μL of cells were taken, and an equal volume of the diluted antibody was added for reaction at 4° C. for 30 min in the dark. After the completion of reaction, the cells were washed twice. The cells were resuspended in 100 μL of the diluted PE Mouse Anti-Human IgG secondary antibodies (purchased from BD Pharmingen), and reacted at 4° C. in the dark for 30 min. After the completion of reaction, the cells were washed twice with a pre-cooled normal saline containing 2% FBS. The cells were resuspended in 400 μL of 1% paraformaldehyde. Flow cytometry (BD Calibur) was used to analyze the binding ability of antibodies to cell surface antigens.

[3] = molecular target: T4, CD38-His fusion protein (UniProt P28907 43-300, limits assumed); experiment: ELISA on coated CD38-His, anti-human IgG HRP
T4 construct: also called target antigen CD38-His; not shown: His tag

[4] = molecular target: T3, CD38 protein on the surface of Raji, …; experiment: flow cytometry on RPMI8226 cells
Method: as §1

[5] = molecular target: T3, CD38 protein on the surface of Raji, …; experiment: flow cytometry on Ramos cells
Method: as §1

[6] = molecular target: T3, CD38 protein on the surface of Raji, …; experiment: flow cytometry on Daudi cells
Method: as §1

[7] = molecular target: T1, mouse CD38 extracellular protein; experiment: ELISA on coated CD38 extracellular protein
Method: (§2) The CD38 extracellular proteins (Beijing Yiqiao Shenzhou Biotechnology Co., Ltd.) of different species of human (Human), mouse (Mouse), rat (Rat), cynomolgus monkey (Cynomolgus) and the like were respectively used to coat ELISA strips at 1 mg/ml at 40 overnight. After washing with PBST, 10% fetal bovine serum was added and blocked at 370 for 1 hour. […] After washing with PBST, horseradish peroxidase-labeled goat anti-human IgG HRP secondary antibodies (purchased from Thermo Fisher Scientific) was added and reacted at room temperature for 30 minutes. The plate was washed with PBST (5 times), and the remaining drops were removed as possible on the absorbent paper. 100 ml of TMB (purchased from eBioscience) was added to each well, and placed at room temperature (20±5° C.) in the dark for 1-5 min. 100 ml of 2N H₂SO₄ stop solution was added to each well to quench the substrate reaction, and the OD value was read at 450 nm with a microplate, to analyze the binding ability of the antibody to CD38 protein of different species.

[8] = molecular target: T5, cynomolgus monkey CD38 extracellular protein (cynomolgus monkey, UniProt Q5VAN0 44-301); experiment: ELISA on coated CD38 extracellular protein
T5 construct: extracellular domain; Purchased; also called CD38 protein molecules of cynomolgus monkeys; Cynomolgus CD38
T5 sequence (Q5VAN0 44-301): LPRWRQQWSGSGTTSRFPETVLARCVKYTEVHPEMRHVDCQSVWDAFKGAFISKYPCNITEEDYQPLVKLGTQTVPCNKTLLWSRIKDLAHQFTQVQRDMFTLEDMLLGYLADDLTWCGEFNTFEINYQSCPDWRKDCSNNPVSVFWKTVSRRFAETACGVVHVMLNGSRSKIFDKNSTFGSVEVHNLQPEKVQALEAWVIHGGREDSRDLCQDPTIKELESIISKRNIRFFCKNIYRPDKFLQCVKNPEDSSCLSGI
Method: as §2

[9] = molecular target: T2, rat CD38 extracellular protein; experiment: ELISA on coated CD38 extracellular protein
Method: as §2

[10] = molecular target: T6, antigen CD38 (UniProt P28907 43-300, limits assumed); experiment: BIACORE SPR, antibody captured by anti-human IgG-Fab, CD38 as mobile phase
T6 construct: Soluble antigen; also called CD38 antigen
Method: (§3) The antibody affinity was analyzed by BIACORE Biomacromolecule Interaction Apparatus (GE).

[11] = molecular target: BSA (BOVOGEN) (UniProt P02769 25-607); experiment: ELISA on coated protein, anti-human IgG HRP
Sequence of BSA (BOVOGEN) (P02769 25-607 limits assumed): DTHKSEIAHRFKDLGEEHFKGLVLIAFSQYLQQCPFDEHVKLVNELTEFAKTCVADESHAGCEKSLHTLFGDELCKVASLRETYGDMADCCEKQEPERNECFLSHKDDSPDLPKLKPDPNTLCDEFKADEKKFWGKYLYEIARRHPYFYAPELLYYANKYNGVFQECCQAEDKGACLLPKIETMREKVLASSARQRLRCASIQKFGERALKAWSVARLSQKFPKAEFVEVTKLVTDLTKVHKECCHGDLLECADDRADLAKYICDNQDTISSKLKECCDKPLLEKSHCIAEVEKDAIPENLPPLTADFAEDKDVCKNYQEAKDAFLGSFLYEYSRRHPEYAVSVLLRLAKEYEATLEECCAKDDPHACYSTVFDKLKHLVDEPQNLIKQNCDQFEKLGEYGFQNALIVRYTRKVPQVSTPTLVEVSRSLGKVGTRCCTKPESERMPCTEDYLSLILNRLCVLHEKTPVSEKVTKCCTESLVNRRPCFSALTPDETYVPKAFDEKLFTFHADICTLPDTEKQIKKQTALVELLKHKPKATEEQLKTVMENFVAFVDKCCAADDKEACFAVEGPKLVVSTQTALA
Method: Various proteins, such as milk (Beijing Bomed Biotechnology Co., Ltd.), BSA (BOVOGEN), CD19 (Beijing Yiqiao Shenzhou Biotechnology Co., Ltd.), TROP2 (Beijing Yiqiao Shenzhou Biotechnology Co., Ltd.), CD47 (Beijing Magpel Biotech Technology Co., Ltd.), CD38 (Beijing Yiqiao Shenzhou Biotechnology Co., Ltd.), Gas6 (R&D) and AXL (ACRO Biosystems) were respectively used to coat ELISA strips at 1 mg/ml at 4° C. overnight. After washing with PBST, 10% fetal bovine serum was added and blocked at 37° C. for 1 hour. […] After washing with PBST, horseradish peroxidase-labeled goat anti-human IgG HRP secondary antibodies (purchased from ThermoFisher Scientific) was added and reacted at room temperature for 30 minutes. After washing the plate with PBST (5 times), the residual drops were removed as possible on the absorbent paper. 100 ml TMB (eBioscience) was added to each well and placed at room temperature (20±50) in the dark for 1-5 min. 100 ml of 2N H₂SO₄ stop solution was added to each well to quench the substrate reaction, and the OD value was read at 450 nm with a microplate reader to analyze the antibody-protein binding ability.

[12] = molecular target: T6, antigen CD38; experiment: binding curve of FIG. 9; method not clearly stated
[13] = molecular target: T6, antigen CD38; experiment: BIACORE SPR by the method of Example 4
Method: as §3

Binder	ADCC EC50, Daudi target cells with NK92MI-CD16a effector cells (LDH release) [1] [ng/mL]	ADCC EC50, RPMI8226 target cells with NK92MI-CD16a effector cells (LDH release) [1] [ng/mL]	ADCC EC50, Raji target cells with NK92MI-CD16a effector cells (LDH release) [1] [ng/mL]	ADCC EC50, Ramos target cells with NK92MI-CD16a effector cells (LDH release) [1] [ng/mL]	EC50 [2] [µg/mL]	EC50 [3] [µg/mL]	EC50 [5] [µg/mL]	EC50 [6] [µg/mL]	EC50 [12] [µg/mL]	also measured
Daratumumab (DARZALEX) (antibody, V domains shown) VH: EVQLLESGGGLVQPGGSLRLSCAVSGFTFNSFAMSWVRQAPGKGLEWVSAISGSGGGTYYADSVKGRFTISRDNSKNTLYLQMNSLRAEDTAVYFCAKDKILWFGEPVFDYWGQGTLVTVSS VL: not shown	4.6	4.94	17	3.01	0.0493	0.151	0.0951	0.0509		EC50 [4]: 0.176 µg/mL
humanized antibody SG003 (antibody, V domains shown, Full antibody expressed in CHO-S cells from vector pCMV-163 with a human IgG constant region; also called SG003 antibody) VH: QVQLLESGGGLVQPGGSLKLSCVASGFDFSLYWMNWVRQAPGKGLEWIGKINPDSSTINYTPSLKDKFFISRDNAKNTLYLQMTKVRSEDTALYYCARLWIATGGFDYWGQGTTLTVSS VL: EIVMTQSPASLSASLGQRATISCRASSSVSSSAFSYVHWYQQKSGQPPKLLIYLASNLESGVPARFSGSGSGTDFTLTIHPVESEDVATYYCHHSRELPFTFGSGTKLEIKR	0.72	1.46	6.97	0.69	0.0344	0.0351	0.0815	0.0367		binding result [7]: no binding; binding result [8]: binds; binding result [9]: no binding; Kd [10]: 0.321 nM; binding result [11]: no binding
SG003M1 antibody (antibody, human IgG1, kappa, V domains shown, also called randomly mutated antibody SG003M1-3) VH: QVQLLESGGGLVQPGGSLKLSCVASGYNFSLYYMNWVRQAPGKGLEWIGKIQPESSTIQYTPSLKDKFFISRDNAKNTLYLQMTKVRSEDTALYYCARLWIGSGGFDYWGQGTTLTVSS VL: EIVMTQSPASLSASLGQRASISCRASNSVSSSAYSYVHWYQQKSGQPPKLLIYLASNIQSGVPARFSGSGSGTDFTLTIHPVESEDVATYYCHHSRQLPSTFGSGTKLEIKR									0.0157	Kd [13]: 0.239 nM; koff [13]: 0.000636 s⁻¹; kon [13]: 2.66e+06 M⁻¹ s⁻¹
SG003M2 antibody (antibody, human IgG1, kappa, V domains shown, also called randomly mutated antibody SG003M1-3) VH: QVQLLESGGGLVQPGGSLKLSCVASGFDFSLYWMNWVRQAPGKGLEWIGKISPNSSTINYSPSLKDKFFISRDNAKNTLYLQMTKVRSEDTALYYCARLYIASGGFDYWGQGTTLTVSS VL: EIVMTQSPASLSASLGQRATISCRASSSVSSSAYSYVHWYQQKSGQPPKLLIYLASDLQSGVPARFSGSGSGTDFTLTIHPVESEDVATYYCHHSRELPYSFGSGTKLEIKR									0.0278	
SG003M3 antibody (antibody, human IgG1, kappa, V domains shown, also called randomly mutated antibody SG003M1-3) VH: QVQLLESGGGLVQPGGSLKLSCVASGFDFSLYWMNWVRQAPGKGLEWIGKISPDSSSLNYTPSVKDKFFISRDNAKNTLYLQMTKVRSEDTALYYCARLWIATGGYNYWGQGTTLTVSS VL: EIVMTQSPASLSASLGQRATISCRASNSVSTSAFSYVHWYQQKSGQPPKLLIYLASNLESGVPARFSGSGSGTDFTLTIHPVESEDVATYYCHHSREVPFTFGSGTKLEIKR									0.0061	
